Measured values as given in article PMC8340551 (The Journal of Cell Biology, 2021).

Biological target: T1, FHL2-Flag (UniProt Q14192 1-279)
T1 sequence (looked up): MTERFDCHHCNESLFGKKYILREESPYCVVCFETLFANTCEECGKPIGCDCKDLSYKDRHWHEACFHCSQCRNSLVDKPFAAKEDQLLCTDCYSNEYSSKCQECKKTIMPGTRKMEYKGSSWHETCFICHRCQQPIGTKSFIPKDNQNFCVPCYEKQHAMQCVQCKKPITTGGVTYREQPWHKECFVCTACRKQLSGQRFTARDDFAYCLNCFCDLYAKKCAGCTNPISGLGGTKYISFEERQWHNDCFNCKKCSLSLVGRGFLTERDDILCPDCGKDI
Experiment: co-IP

B1: Myc-TRAK1 (Myc-TRAK1^WT) (natural protein, UniProt Q9UPV9 1-953, looked up)
chain: MALVFQFGQPVRAQPLPGLCHGKLIRTNACDVCNSTDLPEVEIISLLEEQLPHYKLRADTIYGYDHDDWLHTPLISPDANIDLTTEQIEETLKYFLLCAERVGQMTKTYNDIDAVTRLLEEKERDLELAARIGQSLLKKNKTLTERNELLEEQVEHIREEVSQLRHELSMKDELLQFYTSAAEESEPESVCSTPLKRNESSSSVQNYFHLDSLQKKLKDLEEENVVLRSEASQLKTETITYEEKEQQLVNDCVKELRDANVQIASISEELAKKTEDAARQQEEITHLLSQIVDLQKKAKACAVENEELVQHLGAAKDAQRQLTAELRELEDKYAECMEMLHEAQEELKNLRNKTMPNTTSRRYHSLGLFPMDSLAAEIEGTMRKELQLEEAESPDITHQKRVFETVRNINQVVKQRSLTPSPMNIPGSNQSSAMNSLLSSCVSTPRSSFYGSDIGNVVLDNKTNSIILETEAADLGNDERSKKPGTPGTPGSHDLETALRRLSLRRENYLSERRFFEEEQERKLQELAEKGELRSGSLTPTESIMSLGTHSRFSEFTGFSGMSFSSRSYLPEKLQIVKPLEGSATLHHWQQLAQPHLGGILDPRPGVVTKGFRTLDVDLDEVYCLNDFEEDDTGDHISLPRLATSTPVQHPETSAHHPGKCMSQTNSTFTFTTCRILHPSDELTRVTPSLNSAPTPACGSTSHLKSTPVATPCTPRRLSLAESFTNTRESTTTMSTSLGLVWLLKERGISAAVYDPQSWDRAGRGSLLHSYTPKMAVIPSTPPNSPMQTPTSSPPSFEFKCTSPPYDNFLASKPASSILREVREKNVRSSESQTDVSVSNLNLVDKVRRFGVAKVVNSGRAHVPTLTEEQGPLLCGPPGPAPALVPRGLVPEGLPLRCPTVTSAIGGLQLNSGIRRNRSFPTMVGSSMQMKAPVTLTSGILMGAKLSKQTSLR
modifications: O-GlcNAc on serine and threonine residues (sites not given), more with co-expressed OGT, less with co-expressed OGA
- fold more co-precipitated with OGT overexpression than with OGA overexpression: 5 fold
